The values that follow come from paper PMC11134719.

Experiment [1] addresses angiotensin-converting enzyme 2 (ACE2) (human (endogenous in HUVECs and HMEC-1)) (UniProt Q9BYF1).
Experiment [2] deals with Toll-like receptor 4 (TLR4) (human (endogenous in HUVECs and HMEC-1)) (UniProt O00206).
Sequence of UniProt O00206 (O00206 24-839): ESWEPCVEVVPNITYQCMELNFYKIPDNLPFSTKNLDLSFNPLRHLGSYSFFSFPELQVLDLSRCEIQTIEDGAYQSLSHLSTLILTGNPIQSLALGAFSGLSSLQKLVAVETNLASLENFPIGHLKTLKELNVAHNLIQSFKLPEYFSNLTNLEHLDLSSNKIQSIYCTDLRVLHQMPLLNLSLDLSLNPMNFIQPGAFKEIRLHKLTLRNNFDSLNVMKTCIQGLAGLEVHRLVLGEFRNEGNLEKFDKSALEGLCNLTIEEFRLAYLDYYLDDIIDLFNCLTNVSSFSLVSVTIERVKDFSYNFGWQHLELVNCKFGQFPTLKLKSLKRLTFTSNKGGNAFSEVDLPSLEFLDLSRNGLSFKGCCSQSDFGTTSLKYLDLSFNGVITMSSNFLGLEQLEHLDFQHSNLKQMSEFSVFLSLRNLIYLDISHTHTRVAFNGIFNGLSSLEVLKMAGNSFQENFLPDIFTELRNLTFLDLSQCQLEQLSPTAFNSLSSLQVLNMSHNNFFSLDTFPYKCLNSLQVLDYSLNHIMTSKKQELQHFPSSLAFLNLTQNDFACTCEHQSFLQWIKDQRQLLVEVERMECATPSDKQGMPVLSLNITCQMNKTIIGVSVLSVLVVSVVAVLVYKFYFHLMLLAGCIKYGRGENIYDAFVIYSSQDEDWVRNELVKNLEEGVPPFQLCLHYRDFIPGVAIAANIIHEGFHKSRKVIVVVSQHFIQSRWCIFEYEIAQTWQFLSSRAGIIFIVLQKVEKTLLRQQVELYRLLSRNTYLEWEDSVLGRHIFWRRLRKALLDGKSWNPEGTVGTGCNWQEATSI

Sequence of UniProt Q9BYF1 (Q9BYF1 18-805): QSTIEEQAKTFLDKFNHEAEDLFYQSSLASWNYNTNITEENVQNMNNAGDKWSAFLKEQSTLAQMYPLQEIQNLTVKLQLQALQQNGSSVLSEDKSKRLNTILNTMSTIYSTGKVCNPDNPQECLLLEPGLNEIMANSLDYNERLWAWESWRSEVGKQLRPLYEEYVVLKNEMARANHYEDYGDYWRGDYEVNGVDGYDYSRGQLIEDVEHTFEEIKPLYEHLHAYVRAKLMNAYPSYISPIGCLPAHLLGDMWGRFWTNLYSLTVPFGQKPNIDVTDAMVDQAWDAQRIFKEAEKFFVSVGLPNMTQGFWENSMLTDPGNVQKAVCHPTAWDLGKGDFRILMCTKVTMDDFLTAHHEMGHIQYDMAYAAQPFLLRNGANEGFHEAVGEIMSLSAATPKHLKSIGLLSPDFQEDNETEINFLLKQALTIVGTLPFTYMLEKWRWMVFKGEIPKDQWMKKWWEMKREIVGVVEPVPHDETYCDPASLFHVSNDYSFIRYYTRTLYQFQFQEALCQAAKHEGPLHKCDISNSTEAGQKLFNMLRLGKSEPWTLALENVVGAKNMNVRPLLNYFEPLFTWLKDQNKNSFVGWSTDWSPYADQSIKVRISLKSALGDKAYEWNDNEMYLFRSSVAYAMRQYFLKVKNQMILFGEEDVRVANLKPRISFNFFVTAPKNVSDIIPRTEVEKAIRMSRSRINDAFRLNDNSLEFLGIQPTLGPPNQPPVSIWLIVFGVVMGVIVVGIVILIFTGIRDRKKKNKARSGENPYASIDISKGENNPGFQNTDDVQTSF

In turn, “2019-nCoV S1 Protein (SARS-CoV-2 Spike protein) (domain or fragment)” had a decrease of the ACE2 surface protein level (Western blot of the cell surface fraction), 0.5 µg/mL S protein for 48 h in experiment [1] of 60%. In experiment [2], this substance gave a TLR4 surface protein level by Western blot, fold over nontreated endothelial cells, 0.5 µg/mL S protein for 48 h of 1.7 fold and a TLR4 surface protein level by immunostaining, fold over nontreated endothelial cells, 0.5 µg/mL S protein for 48 h of 1.4 fold.
